According to patent publication US20170051072A1 (UNITED STATES OF AMERICA AS REPRESENTED BY THE SECRETARY …, published 2017):
Where “and” joins values, the source holds several entries; their conditions need not be identical. Equal values may be shown once.

Legend:
[1] = target: T1, human mesothelin with His-tag (R&D Systems) (human, UniProt Q13421 296-580); experiment: ELISA, IgG on captured His-huMesothelin (R&D)
T1 construct: also called huMesothelin; MSLN; not shown: His-tag

[2] = target: T2, human mesothelin with His-tag (in house) (human, UniProt Q13421 296-598, limits assumed); experiment: ELISA, IgG on captured His-huMesothelin (in house)
T2 construct: also called huMesothelin; MSLN; not shown: His-tag
T2 sequence (Q13421 other isoform, or with tags, fused parts or gaps limits assumed): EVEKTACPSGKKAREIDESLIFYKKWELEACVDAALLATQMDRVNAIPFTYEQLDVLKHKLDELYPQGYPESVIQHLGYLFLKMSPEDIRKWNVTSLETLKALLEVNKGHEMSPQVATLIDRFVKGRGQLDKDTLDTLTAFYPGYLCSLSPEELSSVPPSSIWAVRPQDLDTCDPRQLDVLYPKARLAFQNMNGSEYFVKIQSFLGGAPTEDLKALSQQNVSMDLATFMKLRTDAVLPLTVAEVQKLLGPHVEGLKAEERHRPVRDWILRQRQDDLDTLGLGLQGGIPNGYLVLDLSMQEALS

[3] = target: T3, human mesothelin (SPR) (human, UniProt Q13421 296-598, limits assumed); experiment: SPR, IgG captured on Protein A, 50 nM human mesothelin, 25 C, 1:1 fit
T3 construct: also called human MSLN

T1 sequence (Q13421 other isoform, or with tags, fused parts or gaps limits assumed): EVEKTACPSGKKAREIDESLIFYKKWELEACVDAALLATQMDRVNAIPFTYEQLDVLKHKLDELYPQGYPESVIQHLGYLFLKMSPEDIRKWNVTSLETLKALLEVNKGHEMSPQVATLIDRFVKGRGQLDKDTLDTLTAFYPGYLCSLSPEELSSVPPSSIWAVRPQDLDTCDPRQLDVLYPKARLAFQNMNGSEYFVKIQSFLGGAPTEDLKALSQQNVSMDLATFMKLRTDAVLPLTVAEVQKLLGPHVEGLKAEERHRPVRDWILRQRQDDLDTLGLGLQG

Row | Binder | EC50 [1] [µg/mL] | EC50 [2] [µg/mL] | Kd [3]
1 | IgG VH 000/15437 + VL 001/15457 (antibody, V domains shown) VH: not shown VL: DIQMTQSPSSLSASVGDRVTITCSASSSVSYMHWYQQKSGKAPKLLIYDTSKLASGVPSRFSGSGSGTDFTLTISSLQPEDFATYYCQQWSKHPLTFGQGTKLEIK | 0.0182 | 0.0178 | 
2 | IgG VH 001/15438 + VL 000/15456 (antibody, V domains shown) VH: QVQLVQSGAEVKKPGASVKVSCKASGYSFTGYTMNWVRQAPGQGLEWMGLITPYNGASSYNQKFRGKATMTVDTSTSTVYMELSSLRSEDTAVYYCARGGYDGRGFDYWGQGTLVTVSS VL: not shown | 0.0228 | 0.032 | 
3 | IgG VH 001/15438 + VL 001/15457 (antibody, V domains shown, also called VL001/VH001; VL01/VH01) VH: QVQLVQSGAEVKKPGASVKVSCKASGYSFTGYTMNWVRQAPGQGLEWMGLITPYNGASSYNQKFRGKATMTVDTSTSTVYMELSSLRSEDTAVYYCARGGYDGRGFDYWGQGTLVTVSS VL: DIQMTQSPSSLSASVGDRVTITCSASSSVSYMHWYQQKSGKAPKLLIYDTSKLASGVPSRFSGSGSGTDFTLTISSLQPEDFATYYCQQWSKHPLTFGQGTKLEIK | 0.0155 | 0.0203 | 0.263 nM and 0.26 nM
